Here are results for one variant from IntAct's records for PubMed 26688217.

The labels stand for the following.
B1: SUN domain-containing protein 2 (Mus musculus), Q8BJS4-3 (parent)
chain: MSRRSQRLTRYSQDDNDGGSSSSGASSVAGSQGTVFKDSPLRTLKRKSSNMKHLSPAPQLGPSSDSHTSYYSESVVRESYIGSPRAVSLARSALLDDHLHSEPYWSGDLRGRRRRGTGGSESSKANGLTAESKASEDFFGSSSGYSSEDDLAGRLFGLLYWWIGTTWYRLTTAASLLDVFVLTRSRHFSLNLKSFLWFLLLLLLLTGLTYGAWHFYPLGLQTLQPAVVSWWAAKESRKQPEVWESRDASQHFQAEQRVLSRVHSLERRLEALAADFSSNWQKEAIRLERLELRQGAAGHGGGSSLSHEDALSLLEGLVSRREATLKEDLRRDTVAHIQEELATLRAEHHQDSEDLFKKIVQASQESEARVQQLKTEWKSMTQEAFQESSVKELGRLEAQLASLRQELAALTLKQNSVADEVGLLPQKIQAARADVESQFPDWIRQFLLGDRGARSGLLQRDEMHAQLQELENKILTKMAEMQGKSAREAAASLGQILQKEGIVGVTEEQVHRIVKQALQRYSEDRIGMVDYALESGGASVISTRCSETYETKTALLSLFGIPLWYHSQSPRVILQPDVHPGNCWAFQGPQGFAVVRLSARIRPTAVTLEHVPKALSPNSTISSAPKDFAIFGFDEDLQQEGTLLGTFAYDQDGEPIQTFYFQASKMATYQVVELRILTNWGHPEYTCIYRFRVHGEPAH

In the experiment the parent is B1. The note with it: with Syne2, Q6ZWQ0-1.
Consider L400A;L403A, for which the “effect of a mutation on the interaction” value is listed as “disrupting interaction strength”.
